From publication PMC6692557 come the findings set out here.

By stoichiometry N is commonly meant a count of units in the complex or per binding partner.

In this test the target is HgdA (All5345), putative nucleoside-diphosphate-sugar epimerase / UDP-galactose 4-epimerase of Anabaena sp. PCC 7120 (Anabaena sp. PCC 7120). Description: SEC; Superdex 75 10/300 on an ÄKTA system, Tris buffer (20 mmol/L Tris, 200 mmol/L NaCl, pH 7.5); masses calibrated with standard proteins (Gel Filtration LMW Calibration Kit). A general note: In gel filtration, larger molecules generally elute earlier.

“HgdA (All5345), putative nucleoside-diphosphate-sugar epimerase / UDP-galactose 4-epimerase of Anabaena sp. PCC 7120 (enzyme)” returned a stoichiometry N of 2.
